T1: EsCas13d, nuclease-dead (Eubacterium siraeum, UniProt B0MS50, R295A;H300A;R849A;H854A)
T1 sequence: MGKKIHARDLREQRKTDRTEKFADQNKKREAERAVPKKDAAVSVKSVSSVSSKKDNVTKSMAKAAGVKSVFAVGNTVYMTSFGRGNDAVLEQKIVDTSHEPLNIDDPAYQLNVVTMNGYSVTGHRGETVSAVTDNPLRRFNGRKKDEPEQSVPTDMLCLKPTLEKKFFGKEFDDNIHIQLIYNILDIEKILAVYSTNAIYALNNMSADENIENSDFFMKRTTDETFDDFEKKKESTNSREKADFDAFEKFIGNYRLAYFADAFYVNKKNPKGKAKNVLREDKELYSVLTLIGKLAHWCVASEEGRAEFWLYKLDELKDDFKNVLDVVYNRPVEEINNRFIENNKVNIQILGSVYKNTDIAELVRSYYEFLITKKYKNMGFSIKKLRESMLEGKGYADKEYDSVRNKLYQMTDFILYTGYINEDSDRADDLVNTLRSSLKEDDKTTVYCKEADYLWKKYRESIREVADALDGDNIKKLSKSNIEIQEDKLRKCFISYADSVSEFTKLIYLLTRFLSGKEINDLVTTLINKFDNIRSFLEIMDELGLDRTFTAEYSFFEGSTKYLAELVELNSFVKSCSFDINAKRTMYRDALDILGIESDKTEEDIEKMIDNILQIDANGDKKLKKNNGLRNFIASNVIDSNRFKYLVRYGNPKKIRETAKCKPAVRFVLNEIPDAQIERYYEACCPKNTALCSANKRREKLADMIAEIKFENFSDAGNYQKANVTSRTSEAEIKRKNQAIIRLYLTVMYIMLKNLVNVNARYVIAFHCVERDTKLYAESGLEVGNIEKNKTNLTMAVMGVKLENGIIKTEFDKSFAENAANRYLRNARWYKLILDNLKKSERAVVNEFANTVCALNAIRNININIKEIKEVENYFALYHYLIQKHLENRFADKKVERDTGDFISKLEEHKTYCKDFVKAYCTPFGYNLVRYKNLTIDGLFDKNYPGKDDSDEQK

B1: target 1 insA 3' of 2 (mixed)
RNA 1: CACCCGUGCAAAAAUGCAGGGGUCUAAAACUGAGCGGAUAACCUCUCUAUGG
RNA 2: GGGAAUGGAUCCACAUCUACGAAUUCGUACCAUAGAGAGGUUAUCCGCUCAACCGAGAUCGGAAGAGCACACGU
B2: target 1 insA 3' of 17,insG 3' of 8 (mixed)
RNA 1: CACCCGUGCAAAAAUGCAGGGGUCUAAAACUGAGCGGAUAACCUCUCUAUGG
RNA 2: GGGAAUGGAUCCACAUCUACGAAUUCGUACCAUAGAAGAGGUUAUGCCGCUCACCGAGAUCGGAAGAGCACACGU
B3: target 1 C2A,G5U (mixed)
RNA 1: CACCCGUGCAAAAAUGCAGGGGUCUAAAACUGAGCGGAUAACCUCUCUAUGG
RNA 2: GGGAAUGGAUCCACAUCUACGAAUUCGUACCAUAGAGAGGUUAUCCUCUAACCGAGAUCGGAAGAGCACACGU
B4: target 1 G12U,U19C (mixed)
RNA 1: CACCCGUGCAAAAAUGCAGGGGUCUAAAACUGAGCGGAUAACCUCUCUAUGG
RNA 2: GGGAAUGGAUCCACAUCUACGAAUUCGUACCACAGAGAGUUUAUCCGCUCACCGAGAUCGGAAGAGCACACGU
B5: target 1 insC 3' of 17,insC 3' of 1 (mixed)
RNA 1: CACCCGUGCAAAAAUGCAGGGGUCUAAAACUGAGCGGAUAACCUCUCUAUGG
RNA 2: GGGAAUGGAUCCACAUCUACGAAUUCGUACCAUAGCAGAGGUUAUCCGCUCACCCGAGAUCGGAAGAGCACACGU
B6: target 1 insG 3' of 16,insU 3' of 15 (mixed)
RNA 1: CACCCGUGCAAAAAUGCAGGGGUCUAAAACUGAGCGGAUAACCUCUCUAUGG
RNA 2: GGGAAUGGAUCCACAUCUACGAAUUCGUACCAUAGAGGUAGGUUAUCCGCUCACCGAGAUCGGAAGAGCACACGU
B7: target 1 insG 3' of 21,insG 3' of 21 (mixed)
RNA 1: CACCCGUGCAAAAAUGCAGGGGUCUAAAACUGAGCGGAUAACCUCUCUAUGG
RNA 2: GGGAAUGGAUCCACAUCUACGAAUUCGUACCGGAUAGAGAGGUUAUCCGCUCACCGAGAUCGGAAGAGCACACGU
B8: target 1 insU 3' of 18,insC 3' of 14 (mixed)
RNA 1: CACCCGUGCAAAAAUGCAGGGGUCUAAAACUGAGCGGAUAACCUCUCUAUGG
RNA 2: GGGAAUGGAUCCACAUCUACGAAUUCGUACCAUAUGAGACGGUUAUCCGCUCACCGAGAUCGGAAGAGCACACGU
B9: target 1 insC 3' of 20,insG 3' of 19 (mixed)
RNA 1: CACCCGUGCAAAAAUGCAGGGGUCUAAAACUGAGCGGAUAACCUCUCUAUGG
RNA 2: GGGAAUGGAUCCACAUCUACGAAUUCGUACCACUGAGAGAGGUUAUCCGCUCACCGAGAUCGGAAGAGCACACGU
B10: target 1 insU 3' of 12,insA 3' of 11 (mixed)
RNA 1: CACCCGUGCAAAAAUGCAGGGGUCUAAAACUGAGCGGAUAACCUCUCUAUGG
RNA 2: GGGAAUGGAUCCACAUCUACGAAUUCGUACCAUAGAGAGGUUAUAUCCGCUCACCGAGAUCGGAAGAGCACACGU
B11: target 1 A9U,U19G (mixed)
RNA 1: CACCCGUGCAAAAAUGCAGGGGUCUAAAACUGAGCGGAUAACCUCUCUAUGG
RNA 2: GGGAAUGGAUCCACAUCUACGAAUUCGUACCAGAGAGAGGUUUUCCGCUCACCGAGAUCGGAAGAGCACACGU
B12: target 1 insU 3' of 9,insA 3' of 7 (mixed)
RNA 1: CACCCGUGCAAAAAUGCAGGGGUCUAAAACUGAGCGGAUAACCUCUCUAUGG
RNA 2: GGGAAUGGAUCCACAUCUACGAAUUCGUACCAUAGAGAGGUUAUUCACGCUCACCGAGAUCGGAAGAGCACACGU
B13: target 1 insA 3' of 10,insA 3' of 7 (mixed)
RNA 1: CACCCGUGCAAAAAUGCAGGGGUCUAAAACUGAGCGGAUAACCUCUCUAUGG
RNA 2: GGGAAUGGAUCCACAUCUACGAAUUCGUACCAUAGAGAGGUUAAUCACGCUCACCGAGAUCGGAAGAGCACACGU
B14: target 1 C4A,C22G (mixed)
RNA 1: CACCCGUGCAAAAAUGCAGGGGUCUAAAACUGAGCGGAUAACCUCUCUAUGG
RNA 2: GGGAAUGGAUCCACAUCUACGAAUUCGUAGCAUAGAGAGGUUAUCCGAUCACCGAGAUCGGAAGAGCACACGU
B15: target 1 insG 3' of 21,insA 3' of 19 (mixed)
RNA 1: CACCCGUGCAAAAAUGCAGGGGUCUAAAACUGAGCGGAUAACCUCUCUAUGG
RNA 2: GGGAAUGGAUCCACAUCUACGAAUUCGUACCGAUAAGAGAGGUUAUCCGCUCACCGAGAUCGGAAGAGCACACGU
B16: target 1 U8C,U10C (mixed)
RNA 1: CACCCGUGCAAAAAUGCAGGGGUCUAAAACUGAGCGGAUAACCUCUCUAUGG
RNA 2: GGGAAUGGAUCCACAUCUACGAAUUCGUACCAUAGAGAGGUCACCCGCUCACCGAGAUCGGAAGAGCACACGU
B17: target 1 insG 3' of 16,insG 3' of 2 (mixed)
RNA 1: CACCCGUGCAAAAAUGCAGGGGUCUAAAACUGAGCGGAUAACCUCUCUAUGG
RNA 2: GGGAAUGGAUCCACAUCUACGAAUUCGUACCAUAGAGGAGGUUAUCCGCUCGACCGAGAUCGGAAGAGCACACGU
B18: target 1 insG 3' of 14,insU 3' of 2 (mixed)
RNA 1: CACCCGUGCAAAAAUGCAGGGGUCUAAAACUGAGCGGAUAACCUCUCUAUGG
RNA 2: GGGAAUGGAUCCACAUCUACGAAUUCGUACCAUAGAGAGGGUUAUCCGCUCUACCGAGAUCGGAAGAGCACACGU
B19: target 1 insG 3' of 8,insA 3' of 7 (mixed)
RNA 1: CACCCGUGCAAAAAUGCAGGGGUCUAAAACUGAGCGGAUAACCUCUCUAUGG
RNA 2: GGGAAUGGAUCCACAUCUACGAAUUCGUACCAUAGAGAGGUUAUGCACGCUCACCGAGAUCGGAAGAGCACACGU
B20: target 1 insG 3' of 14,insA 3' of 12 (mixed)
RNA 1: CACCCGUGCAAAAAUGCAGGGGUCUAAAACUGAGCGGAUAACCUCUCUAUGG
RNA 2: GGGAAUGGAUCCACAUCUACGAAUUCGUACCAUAGAGAGGGAUUAUCCGCUCACCGAGAUCGGAAGAGCACACGU
B21: target 1 insA 3' of 22,insC 3' of 10 (mixed)
RNA 1: CACCCGUGCAAAAAUGCAGGGGUCUAAAACUGAGCGGAUAACCUCUCUAUGG
RNA 2: GGGAAUGGAUCCACAUCUACGAAUUCGUACACAUAGAGAGGUUCAUCCGCUCACCGAGAUCGGAAGAGCACACGU
B22: target 1 U10A,C22U (mixed)
RNA 1: CACCCGUGCAAAAAUGCAGGGGUCUAAAACUGAGCGGAUAACCUCUCUAUGG
RNA 2: GGGAAUGGAUCCACAUCUACGAAUUCGUAUCAUAGAGAGGUAAUCCGCUCACCGAGAUCGGAAGAGCACACGU
B23: target 1 insC 3' of 17,insU 3' of 1 (mixed)
RNA 1: CACCCGUGCAAAAAUGCAGGGGUCUAAAACUGAGCGGAUAACCUCUCUAUGG
RNA 2: GGGAAUGGAUCCACAUCUACGAAUUCGUACCAUAGCAGAGGUUAUCCGCUCAUCCGAGAUCGGAAGAGCACACGU
B24: target 1 insC 3' of 12,insG 3' of 11 (mixed)
RNA 1: CACCCGUGCAAAAAUGCAGGGGUCUAAAACUGAGCGGAUAACCUCUCUAUGG
RNA 2: GGGAAUGGAUCCACAUCUACGAAUUCGUACCAUAGAGAGGCUGUAUCCGCUCACCGAGAUCGGAAGAGCACACGU
B25: target 1 insC 3' of 22,insC 3' of 20 (mixed)
RNA 1: CACCCGUGCAAAAAUGCAGGGGUCUAAAACUGAGCGGAUAACCUCUCUAUGG
RNA 2: GGGAAUGGAUCCACAUCUACGAAUUCGUACCCACUAGAGAGGUUAUCCGCUCACCGAGAUCGGAAGAGCACACGU
B26: target 1 C2G,U19A (mixed)
RNA 1: CACCCGUGCAAAAAUGCAGGGGUCUAAAACUGAGCGGAUAACCUCUCUAUGG
RNA 2: GGGAAUGGAUCCACAUCUACGAAUUCGUACCAAAGAGAGGUUAUCCGCUGACCGAGAUCGGAAGAGCACACGU
B27: target 1 U8G,G15U (mixed)
RNA 1: CACCCGUGCAAAAAUGCAGGGGUCUAAAACUGAGCGGAUAACCUCUCUAUGG
RNA 2: GGGAAUGGAUCCACAUCUACGAAUUCGUACCAUAGAUAGGUUAGCCGCUCACCGAGAUCGGAAGAGCACACGU
B28: target 1 insC 3' of 5,insG 3' of 4 (mixed)
RNA 1: CACCCGUGCAAAAAUGCAGGGGUCUAAAACUGAGCGGAUAACCUCUCUAUGG
RNA 2: GGGAAUGGAUCCACAUCUACGAAUUCGUACCAUAGAGAGGUUAUCCGCCGUCACCGAGAUCGGAAGAGCACACGU

target: T1, EsCas13d, nuclease-dead; experiment: crRNA (strand 1, pre-loaded); Mg2+; 40 mM Tris-HCl pH 7.5, 150 mM NaCl, 6 mM MgCl2, 1 mM DTT, 0.1% Tween-20, 0.2 mg/ml BSA; 25 C; 10 min per concentration, then washed; settings: tags: His6-TwinStrep-SUMO cleaved; N-terminal SNAP kept (SNAP-Surface 488); label: 3' end held by stalled T7 RNA polymerase

| Binder | Kd [nM] |
| --- | --- |
| B1 | 8.5 ± 0.5 |
| B2 | 14.7 ± 1.7 |
| B3 | 24 ± 1.9 |
| B4 | 42 ± 6 |
| B5 | 39 ± 4 |
| B6 | 26 ± 4 |
| B7 | 87 ± 24 |
| B8 | 73 ± 23 |
| B9 | 47 ± 7 |
| B10 | 13 ± 0.9 |
| B11 | 72 ± 9 |
| B12 | 9.5 ± 0.4 |
| B13 | 10.4 ± 0.5 |
| B14 | 25 ± 8 |
| B15 | 64 ± 15 |
| B16 | 22.4 ± 1.3 |
| B17 | 14.4 ± 2.5 |
| B18 | 12.5 ± 0.8 |
| B19 | 10.6 ± 0.6 |
| B20 | 23.7 ± 1.7 |
| B21 | 29 ± 4 |
| B22 | 20.8 ± 2.8 |
| B23 | 66 ± 21 |
| B24 | 11.7 ± 0.8 |
| B25 | 13.3 ± 1.7 |
| B26 | 24.9 ± 2.7 |
| B27 | 73 ± 12 |
| B28 | 9.2 ± 0.8 |

Source: publication PMC10786891, “Massively parallel profiling of RNA-targeting CRISPR-Cas13d”
